We go through two molecules from US20150118710.

In data set [1] the test system is Insulin glargine single chain precursor (Fglargine), glargine pro-peptide.
The target in data set [2] is Insulin glargine single chain precursor (Fglargine), glargine pro-peptide. This is another data set of the same source.

“And” between values parts separate entries of the source, which are not always exact repeats. Equal values may be shown once.

On to “endogenous Kex2p (Kexin endoprotease) of Pichia pastoris”, for which, in data set [1], the % conversion achieved (HPLC peak areas) was 0%; the % yield increased (two chain glargine), clone without co-expression is 5% and 0%; the “secretion of two chain glargine (mass analysis of secreted product)” value is “it is not possible to secrete two chain glargine directly into the medium using endogenous Kex2p alone”.

B1: ΔKex2p, 660 amino acid functional domain of Kexin endoprotease (Kex2p) from Pichia pastoris (protein)
chain: MYLPALRLACWILIGLRSTEALETSEREIFALKLDKSWLPTFLETFQDKFRYERQINGLDDYHVFSHSKNEEFQLENFKVKTLLTRDNANLHSELISHNVDEVHMLRPSHYLHKRAPVVMDKSEELREQIAKDFDIDDPLFAKQWHLFNPRYPGHDVNVSQVWYDGITGKGVVTAIVDDGLDMDSKDLKESFCEEGSWDFNANTRLPKPRLRDDHHGTRCAAEIAAKKGNKYCGVGVAYDSKVSGIRILSDKITPEDEALSLIYGLDVNDIYSCSWGPADNGITMQGPSSLVKEAMLKGVQDGRKGKGALYVFASGNGASSGDNCNFDGYTNSIYSITVGAIDIKGLHPPYAEACSAVMTVTYSSGSGEHIHTTDINDKCSDTHGGTSAAAPLAAGLYSLVYQANPDLTWRDIQWLTVLTAVPVNEQEPGWQKTAIGKMYSHKYGYGKIDAYALVNLARSPDFPYLKPQSWIYGTEVHESLNTSEANGVLTSKYELTQEAKDLMNFEKIEHVTVTVDIKAAERGKVLVELISPSGVVSELAPYRRMDKDKEGFPNWTFMSVAHWGEDGLGEWILKITNKEGNSVVLNSWQIKFFGESQDPEKAEKFSLTKKYDEILVNPPSSSTSTTVDTSSTEATFSSSSVSEASATETDVKETSTTGD
In data set [2], B1 registered a % conversion achieved (HPLC peak areas), Clone #2F6, GAP promoter of 9.44%; a % conversion achieved (HPLC peak areas), Clone #3C1, GAP promoter of 31.4%; a % conversion achieved (HPLC peak areas), Clone #4B7, GAP promoter of 33.6%; a % conversion achieved (HPLC peak areas), Clone #5C5, GAP promoter of 45%. Further, in data set [2], the % conversion achieved (HPLC peak areas), Clone #IB4, GAP promoter worked out at 13%; the % conversion achieved (HPLC peak areas), Clone# 6D6, GAP promoter came out at 59.5%; the % yield increased (two chain glargine), FLD1 promoter was over 93%; the % yield increased (two chain glargine), GAP promoter stood at 60%.
